Results: the DeepSol protein solubility set

Test: soluble on expression in E. coli; label from the status in PepcDB or PDB records

Question: For “MGSDKIHHHHHHMKRTTKSIQAEIAKGAFRPHTALSTMALAYYQQETTSFAKNMFPVCPVQLSSDNYYVFDKEDLLRDNWNRKPAYGSVDPAVISEHTENYACHVDQMMMGIDNIRQTDLNRRQGPHTKDPRQQRTKVIATQANIHQDAEFSKSFMRKGVWKNEATGTDSVSVTSGQFIKFSNGNSDPIAFFQNKMTEINEETGRTPNRLGLGVNVYNALKEHPAILERVKYGGSTPNPAKVNLNVLAQLFEIDRIVLDRTVQNKAGLGQNADMGYIGDPNSFLLAYATDTPSVEEPSAGYIFTWDMLENGILLPILNYPGAPGTHSELVEGLMAYDMKKTADDLAFFGCDAV”, which “soluble on expression in E. coli” value is on record?
Answer: not soluble

Question: Which “soluble on expression in E. coli” value does the source give for “MSALNELLHDDAIDLNAHAETWQEAIAQAGALLEKTGAITSAYTESMISSVEEQGPYIVVAPGFAFAHARPSEAVKRTAIAWTRLDSPVEFHHSSNDPVTLVVALAAQDDQAHTAAMREIAQVLGSRRRDLDTVATVAELRGVLEASKRRKSRGVAGGATHVTAQDSVESKGKILTVCGNGLGTSLFLKNTLDQVLDTWGWGPFVSTEATDTISAKGRAKEADFLLTSEEIARTLGDVGVPVYVISNFTSEDEIDAALRELYDV” here?
Answer: not soluble

Question: Which “soluble on expression in E. coli” value does the source give for “MKFKQIILAGAVLATSTFTSLTNAQAETGFRDVPSDHWSYNAIMGLKEKNIVAGYGNGMFGFGDNITRGQVARLIYAYLKPADEHNAPNPFTDVKGHMFEKEILSLSKAGIMNGFGDGKFGPDNVLTREQLAVVLTKAFNFKATSTTTFKDVDKNYWATNAISALQENKIAAGTGDNLFEPKNIVTREQYAQFLYNAMNTVEVKPELTPFGIPSSMITNDFYYNSNNWKNASPVLKKSVSNEAQNLITKINKKYNEDYKYESASVSSMGLPESVQLRTSNPNLGRVYDLGQGQFFVQGENEHDFYIMFIIDNATVELAKSWITLINSDLNLDKEINDVIAMPSQKARGRDYHTYLDKGKYQIELGTSPQTKGYDSLFIGIKRK” here?
Answer: not soluble

Question: For “MGGFGVGKTTMVGSVSEIRPLTTEETMTQAGIGVDDNYGSASKTATTVAMDFGRISITDELVLYLFGTPGQERFWFLWNGLFEGALGAVVLVDTRRLEVSFDVMGRLEERGVPFVVAVNTFPDAPRYPVAELRTALDLPEEIPILDCDVRRRASSRDVLMTLMRLLHSLAMKGALTLEHHHHHH”, which “soluble on expression in E. coli” value is on record?
Answer: not soluble

Question: Which “soluble on expression in E. coli” value does the source give for “GMAINIIEYNRSYKEELIEFILSIQKNEFNIKIDRDDQPDLENIEHNYLNSGGQFWLAINNHQNIVGTIGLIRLDNNMSALKKMFVDKGYRNLKIGKKLLDKVIMTCKEQNIDGIYLGTIDKFISAQYFYSNNGFREIKRGDLPSSFPKLDVDNRFYYRNLKD” here?
Answer: soluble

Question: For “VSTTPAAGVLDTSVFIATESGRQLDEALIPDRVATTVVTLAELRVGVLAAATTDIRAQRLATLESVADMETLPVDDDAARMWARLRIHLAESGRRVRINDLWIAAVAASRALPVITQDDDFAALDGAASVEIIRV”, which “soluble on expression in E. coli” value is on record?
Answer: not soluble

Question: Which “soluble on expression in E. coli” value does the source give for “MKRMLASLLGTAIALGSGLALAAEADLQALEQAARKEGQVNSVGMPDSWANWKDTWKDLESKYGLKHMDTDMSSAQELAKFKAEKDNASADIGDVGAAFGPIAVQQGVSQPYKPSTWEQIPAWAKDQDGHWALAYTGTIAFIVNKQLVKDVPHSWADLLQGKYKVTIGDVSAAAQAVNGVLAAAIANGGDEKNIKPGLEFFGKIAKQGRLSLTNPVIATLEKGEVEVGIVWDFNGLSYRQQIDPERFEVLIPSDGSVISGYTTIINKYAKHPNAAKLAREYIFSDAGQINLAKGNARPIRAESLTLPDDVKAQLLPNEQYAKAQPIKDAKAWEETSKRLPRQWQEAVIINMQ” here?
Answer: not soluble

Question: With “MKVAIIACQKMVEMGCPGKEACVSCFKAINEKSGAFERYKDVELVAFTTCGGCPGRRFPMRVKLLKTAAGAEAIHIANCTFLQPECPYINFDEICKKLMEELEIPIVFGTHTLVKKGEVVCTCGDNKE” as the sequence, how does the “soluble on expression in E. coli” value read?
Answer: not soluble

Question: For “GPGSMSVKETTIALPLMVESVLDVDSGITATSAISVLDDRAVLIGTSEGSILLCAPVNESAHVLTPYSDTTLHCGAIYDLAVSSDHLVATAGHDAVSCVFPLHTFFRASGVRQCRRITGHTVPVVAVRFLSDGTSLVTLGADGRVLVAEVHSGHVLASLLCGFAATCLACSMDETQLFVGGRSLASIDLHHAMRPMSLQSVAAAASGPDPWASLSSAAAAPGAAASLRTPAWLRLYAWEEKSEATAGASRRQFRAPPHTFIRSLSVDSRDGALTATFARHAGGTSSVEVCGSARWAATGGRTASEATWAPQALQGVSAALRYPMSRDRSTGVATGKLRVRCRVKASARPSAKQTPAPPGSFASTAAALWNGRWYASPFELAGGTPRLTASHGLAETSVFTAEKSDQYGFPSAGPRTPAEELLIAQAQCDELQRECDALVFQIKSFLARKAPIR”, which “soluble on expression in E. coli” value is on record?
Answer: not soluble

Question: For “MSLQEKNFSEEEIDDALSRCQAKNWQSDRRFSENYLNSRVQKGYGVGRIRQELRQLKGVSSDIIDEVLMESEIDWYEMAENLLRKKFPNYNEQQTPKMKQKIWQYMLSHGFRSDEFADLIGQNQSEWDEGHHHHHH”, which “soluble on expression in E. coli” value is on record?
Answer: soluble

Question: With “MDKKTIYFICTGNSCRSQMAEGWGKEILGEGWNVYSAGIETHGVNPKAIEAMKEVDIDISNQTSDLIDNDILKQSDLVVTLCSDADNNCPILPPNVKKEHWGFDDPAGKEWSEFQRVRDEIKLAIEKFKLR” as the sequence, how does the “soluble on expression in E. coli” value read?
Answer: soluble

Question: Which “soluble on expression in E. coli” value does the source give for “MGSDKIHHHHHHMGGIGLRRLGCGEAIQIGGDTRAGPVVQIESADHVQSGGDGKGLDTPSIGPDPKRVAVIGHHHVEGAIGVPVQIGKGLSGVHGIGMIQGFEYQFAARPLARRRAQRSDAVENGRHDAGIVDTQPGPPRQLVQPGHHFGAVVPPTARTIPGPGVHLVAIGGDDQRPLVARAAKQNKSAHSQKSVSSGLSARYNTTCVHRFHPVGAKHRKGYGTRLIMTAFDDREKAFEAKYRLDQEQEFKARIRRDKLLGLWAAEQMGISGDAAKTYALSVVDVEFDATDRDAGHKIVRDFIASGITLDEAAIRHQMAVLLEIAREQIVTEMGRP” here?
Answer: not soluble

Question: For “MGSDKIHHHHHHMISMKEEIKKVIEETGLPIITDEKSGAAQWVDLRELRLSYIISVENIKPFYEGLKEGKLLGTKCKKCGRLFFPPQKDCPSCFDSDIEWVELKNEGTLETMTVVFVRPPSFSAYDPYPVAIAKLDDGPRILAWYKGDPQQAKPGMRVKIQVGKRKEGYLMYEIAPA”, which “soluble on expression in E. coli” value is on record?
Answer: not soluble

Question: For “MGSDKIHHHHHHMKGAAFVKKEGLKQKALEIGRVPTHLKLEIEDYGGDDKRAHFCWADPQDENTGIIVELGPDGELESLSRDIEPESGERLSEEKLEDIMRQFVETHHPGALSAFVREENDRAYGDKVRFSYVQMEAGLPLPMSGFMADVSLSGEIVYFRYYGEAGSIIKPKRVADVEEALAFIKKDVEFDLLFEVLHRSVYKNGDDQPHLVYEPEGRAITVPADLVQEEQAVDDDDDYREPESFPLPLFEGIREKADPDSMIGIENGFVKEREADLGDGRIGIVWRNPDDPVYQPADKSMDSWFKGRTHQVLKTIYNKETGKLEGVMSFMEKKGPLTVTLAECEKIALRFLFALFPNADQYFRIRYDEKDEEENAVAGFTFEAHCHGVPLRFGQIRICVSRQTGYITVYMGPDIDPNKLATIDPVPAISVEQAKSIFWQHFKVELGWEREYGDDEEHSYRLVYKPVYPHFIDAHTGEPVFSIW”, which “soluble on expression in E. coli” value is on record?
Answer: not soluble

Question: Which “soluble on expression in E. coli” value does the source give for “LDARFSDAESNSGLTKATTDTLEAYLDVNEDGTWEVDNFLKKSVDKQHGWMQIIDSEGNTDYSYGVPKDVPGTYTKKELLSIYKTKKLHNYKLNYWAINIEDKSYLLLSGWKSKSEQLLTSVEKREQKIDSLAHYKSSTIDYIKRKKGAIYLLDSNGKILDSINSTKSERKTMNQLELLKYSSKPWNYKREISVKILNKDRWMVATVPNPVYVTDQEFNKSFLK” here?
Answer: not soluble

Question: Which “soluble on expression in E. coli” value does the source give for “MSLARIIVVTSGKGGVGKTTSSAAIATGLAQKGKKTVVIDFDIGLRNLDLIMGCERRVVYDFVNVIQGDATLNQALIKDKRTENLYILPASQTRDKDALTREGVAKVLDDLKAMDFEFIVCDSPAGIETGALMALYFADEAIITTNPEVSSVRDSDRILGILASKSRRAENGEEPIKEHLLLTRYNPGRVSRGDMLSMEDVLEILRIKLVGVIPEDQSVLRASNQGEPVILDINADAGKAYADTVERLLGEERPFRFIEEEKKGFLKRLFGGEGHHHHHH” here?
Answer: soluble

Question: Which “soluble on expression in E. coli” value does the source give for “MPNKRNVELLATLKENLERAQGSFFLVNYQGLPAKETHALRQALKQNGARLFVAKNTLIRLALKELGLPELDGLQGPSAVVFYEDPVAAAKTLVQFAKSNPKGIPQVKSGLLQGQILTAKDVEALAELPTMDELRAELVGVLQAPMAELVGVLGGVARELVGILEAYAEKKAA” here?
Answer: soluble
